According to article PMC11218372:

How the values were obtained:
[1] = biological target: CA7-PabCA, carbonic anhydrase from Pyrococcus abyssi (Py. abyssi); test: SDS-PAGE; SEC fractions of the purified CA (Cobalt His-Pur, Superdex 75), NuPAGE 4-12% Bis-Tris gel
[2] = biological target: CA7-PabCA, carbonic anhydrase from Pyrococcus abyssi (Py. abyssi); test: SDS-PAGE; cell lysates of E. coli overexpressing the CA, NuPAGE 4-12% Bis-Tris gel in MES buffer; CA7 expressed without additional Zn, CA8 with 0.5 mM ZnSO4
[3] = biological target: CA8-PhoCA, carbonic anhydrase from Pyrococcus horikoshii (Py. horikoshii); test: SDS-PAGE; SEC fractions of the purified CA (Cobalt His-Pur, Superdex 75), NuPAGE 4-12% Bis-Tris gel
[4] = biological target: CA8-PhoCA, carbonic anhydrase from Pyrococcus horikoshii (Py. horikoshii); test: SDS-PAGE; cell lysates of E. coli overexpressing the CA, NuPAGE 4-12% Bis-Tris gel in MES buffer; CA7 expressed without additional Zn, CA8 with 0.5 mM ZnSO4

Row | Substance | stoichiometry N [1] | stoichiometry N [2] | stoichiometry N [3] | stoichiometry N [4]
1 | CA7-PabCA, carbonic anhydrase from Pyrococcus abyssi (enzyme) | 3 | 3 | – | –
2 | CA8-PhoCA, carbonic anhydrase from Pyrococcus horikoshii (enzyme) | – | – | 3 | 3
